# Assay results published in PMC4244113.
# Read-outs that look alike come from different tables or passages of the source.
# B1: Arabidopsis thaliana eIFiso4E (natural protein)
# chain: MATDDVNEPLPAAAELPATEAEKQPHKLERKWSFWFDNQSKKGAAWGASLRKAYTFDTVEDFWGLHETIFQTSKLTANAEIHLFKAGVEPKWEDPECANGGKWTWVVTANRKEALDKGWLETLMALIGEQFDEADEICGVVASVRPQSKQDKLSLWTRTKSNEAVLMGIGKKWKEILDVTDKITFNNHDDSRRSRFTV
# Assays:
# Experiment in all cases: SPR
# [1] = target: Turnip mosaic virus (TuMV) viral protein-genome linked (VPg), His-tagged (turnip mosaic virus)
# Sequence of Turnip mosaic virus (TuMV) viral protein-genome linked (VPg), His-tagged (turnip mosaic virus) (P89509 1925-2116 limits assumed): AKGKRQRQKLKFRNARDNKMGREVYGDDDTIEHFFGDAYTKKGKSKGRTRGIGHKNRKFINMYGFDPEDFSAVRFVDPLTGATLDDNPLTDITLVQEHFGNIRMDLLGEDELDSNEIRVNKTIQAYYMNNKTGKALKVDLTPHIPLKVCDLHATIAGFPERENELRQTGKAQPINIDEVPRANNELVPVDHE
# [2] = target: Turnip mosaic virus (TuMV) viral protein-genome linked (VPg), His-tagged (turnip mosaic virus); remark: listed apart in the source
# [3] = target: Turnip mosaic virus (TuMV) viral protein-genome linked (VPg), His-tagged (turnip mosaic virus); remark: listed apart in the source
Molecule,Kd [1] [µM],koff [1] [s⁻¹],kon [1] [M⁻¹ s⁻¹],Kd [2] [µM],koff [2] [s⁻¹],kon [2] [M⁻¹ s⁻¹],Kd [3] [µM],koff [3] [s⁻¹],kon [3] [M⁻¹ s⁻¹]
N-terminal 33 residues-deleted human eIF4E (from UniProt P06730 34-217) (domain or fragment),3.29,0.00447,1360,–,–,–,–,–,–
B1,–,–,–,1.41,0.00459,3250,0.208,0.00432,20800
